The series concerns the molecule itself. The series is described as follows: non-reducing SDS-PAGE of whole cell extracts of transfected HEK293T cells.

B1: CPG15-2 (other)
chain: SEGPNRCDTIYQGFAECLIRLGDGMGRGGELQTVCRSWNDFHACASRVLSGCPEEAAAVWESLQQEARRAPHPDNLHILCGAPVSVRERIAGPETNQETLRATA
notes: also called mouse CPG15-2
In the case of B1, the binding result is listed as “binds”.
